Data from PMC9482650, “Quantitative fragmentomics allow affinity mapping of interactomes” (Nature Communications, 2022).
Residue numbers refer to the chain shown, from its start.

T1: APBA1_1, Q02410
T1 sequence (Q02410 651-752, limits assumed, looked up): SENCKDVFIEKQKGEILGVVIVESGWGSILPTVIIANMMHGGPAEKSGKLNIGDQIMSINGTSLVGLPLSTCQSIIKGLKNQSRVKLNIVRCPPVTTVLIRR

T2: APBA1_2, Q02410
T2 sequence (Q02410 742-832, limits assumed, looked up): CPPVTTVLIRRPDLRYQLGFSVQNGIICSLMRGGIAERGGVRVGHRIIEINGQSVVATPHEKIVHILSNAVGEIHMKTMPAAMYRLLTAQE

T3: APBA2_2, Q99767
T3 sequence (Q99767 654-744, limits assumed, looked up): T2 sequence (Q02410 742-832, limits assumed, looked up) with R10K, R15K, P59A, H65Q, I66A, A70S, Y84F, A89G

T4: FRMPD1, Q5SYB0
T4 sequence (Q5SYB0 52-145, limits assumed, looked up): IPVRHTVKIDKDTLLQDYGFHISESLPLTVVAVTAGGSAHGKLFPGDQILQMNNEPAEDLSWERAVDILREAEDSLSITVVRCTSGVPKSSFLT

T5: GRIP1_4, Q9Y3R0
T5 sequence (Q9Y3R0 467-571, limits assumed, looked up): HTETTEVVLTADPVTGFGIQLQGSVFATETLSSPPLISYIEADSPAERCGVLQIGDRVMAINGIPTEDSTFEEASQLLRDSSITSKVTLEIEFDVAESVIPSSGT

T6: GRIP1_5, Q9Y3R0
T6 sequence (Q9Y3R0 568-668, limits assumed, looked up): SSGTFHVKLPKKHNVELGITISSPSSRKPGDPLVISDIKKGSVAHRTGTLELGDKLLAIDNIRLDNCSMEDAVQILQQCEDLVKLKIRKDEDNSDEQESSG

T7: HTRA4, P83105
T7 sequence (P83105 378-476, limits assumed, looked up): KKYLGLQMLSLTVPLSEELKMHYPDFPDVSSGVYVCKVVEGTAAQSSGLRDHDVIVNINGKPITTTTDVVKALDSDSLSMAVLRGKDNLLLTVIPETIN

T8: LIN7B, Q9HAP6
T8 sequence (Q9HAP6 88-185, limits assumed, looked up): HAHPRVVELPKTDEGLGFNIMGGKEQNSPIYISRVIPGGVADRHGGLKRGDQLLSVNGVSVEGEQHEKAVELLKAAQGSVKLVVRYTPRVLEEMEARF

T9: NHERF3_1, Q5T2W1
T9 sequence (Q5T2W1 4-100, limits assumed, looked up): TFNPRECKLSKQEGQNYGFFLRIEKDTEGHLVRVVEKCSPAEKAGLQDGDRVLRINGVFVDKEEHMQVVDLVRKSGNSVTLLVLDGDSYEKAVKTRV

T10: NHERF3_3, Q5T2W1
T10 sequence (Q5T2W1 238-333, limits assumed, looked up): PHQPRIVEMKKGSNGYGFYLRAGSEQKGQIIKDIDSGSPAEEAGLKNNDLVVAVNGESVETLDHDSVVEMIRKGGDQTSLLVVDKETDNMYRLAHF

T11: RAPGEF6, Q8TEU7
T11 sequence (Q8TEU7 525-625, limits assumed, looked up): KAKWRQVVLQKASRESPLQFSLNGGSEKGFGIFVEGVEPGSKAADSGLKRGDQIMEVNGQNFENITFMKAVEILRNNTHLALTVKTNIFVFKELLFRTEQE

T12: SNTB1, Q13884
T12 sequence (Q13884 107-205, limits assumed, looked up): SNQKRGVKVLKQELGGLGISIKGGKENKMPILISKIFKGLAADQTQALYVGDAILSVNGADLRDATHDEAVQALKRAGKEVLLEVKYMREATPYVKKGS


Columns and labels:
Test in all cases: holdup assay
Set-up in all cases: key: below the threshold = too weak to quantify, mostly under pKd 3.1 to 4
Conditions in all cases: plain residues with an end cap or a label only (N-terminal biotin on a linker: ado-ado)
[1] = target: T1, APBA1_1, Q02410
[2] = target: T2, APBA1_2, Q02410
[3] = target: T3, APBA2_2, Q99767
[4] = target: DLG1_1, Q12959
[5] = target: DLG2_3, Q15700
[6] = target: DLG4_1, P78352
DLG4_1, P78352, sequence (P78352 62-152): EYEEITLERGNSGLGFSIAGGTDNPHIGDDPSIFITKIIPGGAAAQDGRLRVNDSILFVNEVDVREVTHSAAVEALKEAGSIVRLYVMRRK

[7] = target: T4, FRMPD1, Q5SYB0
[8] = target: FRMPD3, Q5JV73
FRMPD3, Q5JV73, sequence (Q5JV73 12-100): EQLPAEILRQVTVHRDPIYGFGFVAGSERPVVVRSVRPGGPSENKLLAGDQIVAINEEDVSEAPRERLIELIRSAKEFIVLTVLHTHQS

[9] = target: GOPC, Q9HD26
[10] = target: GORASP2, Q9H8Y8
[11] = target: GRASP, Q7Z6J2
GRASP, Q7Z6J2, sequence (Q7Z6J2 96-193): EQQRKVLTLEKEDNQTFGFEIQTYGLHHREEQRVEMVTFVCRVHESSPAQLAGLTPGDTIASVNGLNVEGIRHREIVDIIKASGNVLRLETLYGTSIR

[12] = target: T5, GRIP1_4, Q9Y3R0
[13] = target: T6, GRIP1_5, Q9Y3R0
[14] = target: GRIP2_6, Q9C0E4
GRIP2_6, Q9C0E4, sequence (Q9C0E4 648-740): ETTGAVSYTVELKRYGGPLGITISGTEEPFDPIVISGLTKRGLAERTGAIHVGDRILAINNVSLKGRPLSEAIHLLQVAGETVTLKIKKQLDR

[15] = target: T7, HTRA4, P83105
[16] = target: Inadl_6, Q8NI35
Inadl_6, Q8NI35, sequence (Q8NI35 1058-1167): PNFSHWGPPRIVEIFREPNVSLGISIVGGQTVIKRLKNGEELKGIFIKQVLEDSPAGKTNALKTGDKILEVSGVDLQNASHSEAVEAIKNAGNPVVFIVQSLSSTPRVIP

[17] = target: LAP2, Q96RT1
LAP2, Q96RT1, sequence (Q96RT1 other isoform, or with tags, fused parts or gaps): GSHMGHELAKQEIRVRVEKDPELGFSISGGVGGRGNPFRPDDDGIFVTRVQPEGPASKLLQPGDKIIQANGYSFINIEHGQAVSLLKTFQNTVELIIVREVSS

[18] = target: LDB3, O75112
LDB3, O75112, sequence (O75112 1-94): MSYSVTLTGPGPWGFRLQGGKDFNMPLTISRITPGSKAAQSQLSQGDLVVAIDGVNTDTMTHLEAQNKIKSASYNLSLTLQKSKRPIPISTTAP

[19] = target: T8, LIN7B, Q9HAP6
[20] = target: MAGI2_2, Q86UL8
MAGI2_2, Q86UL8, sequence (Q86UL8 410-522): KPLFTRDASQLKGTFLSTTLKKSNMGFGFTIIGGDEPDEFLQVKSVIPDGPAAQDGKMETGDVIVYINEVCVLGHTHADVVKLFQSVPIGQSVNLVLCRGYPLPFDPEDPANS

[21] = target: MAST1, Q9Y2H9
MAST1, Q9Y2H9, sequence (Q9Y2H9 962-1065): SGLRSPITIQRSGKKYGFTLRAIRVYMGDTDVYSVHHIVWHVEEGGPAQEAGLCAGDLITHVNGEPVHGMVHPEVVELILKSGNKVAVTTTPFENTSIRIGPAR

[22] = target: T9, NHERF3_1, Q5T2W1
[23] = target: T10, NHERF3_3, Q5T2W1
[24] = target: PARD3_3, Q8TEW0
PARD3_3, Q8TEW0, sequence (Q8TEW0 582-685): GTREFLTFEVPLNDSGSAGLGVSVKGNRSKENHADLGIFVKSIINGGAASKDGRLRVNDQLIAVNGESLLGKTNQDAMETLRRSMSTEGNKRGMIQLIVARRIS

[25] = target: T11, RAPGEF6, Q8TEU7
[26] = target: T12, SNTB1, Q13884

pKd [1]	pKd [2]	pKd [3]	pKd [4]	pKd [5]	pKd [6]	pKd [7]	pKd [8]	pKd [9]	pKd [10]	pKd [11]	pKd [12]	pKd [13]	pKd [14]	pKd [15]	pKd [16]	pKd [17]	pKd [18]	pKd [19]	pKd [20]	Binder	other results
below the threshold	3.9	below the threshold	3.63	below the threshold	3.82	below the threshold	below the threshold	3.87	below the threshold	3.92	below the threshold	below the threshold	3.49	below the threshold	below the threshold	below the threshold	below the threshold	below the threshold	4.08	QNRIITKTDV [SMCHD1, A6NHR9]	pKd [21]: below the threshold; pKd [22]: below the threshold; pKd [23]: below the threshold; pKd [24]: below the threshold; pKd [25]: below the threshold; pKd [26]: 3.64
below the threshold	4.36	below the threshold	3.96	below the threshold	4.26	below the threshold	3.47	below the threshold	4.39	3.52	below the threshold	below the threshold	3.51	3.48	4.21	5.5	3.82	below the threshold	below the threshold	QYPGSPDSWV [PKP4, Q99569]	pKd [21]: 3.97; pKd [22]: below the threshold; pKd [23]: below the threshold; pKd [24]: 3.85; pKd [25]: below the threshold; pKd [26]: 4.36
below the threshold	below the threshold	below the threshold	below the threshold	below the threshold	below the threshold	below the threshold	4.16	below the threshold	below the threshold	below the threshold	below the threshold	below the threshold	below the threshold	3.9	below the threshold	3.67	below the threshold	3.52	below the threshold	GDGLDDEIAV [NOS1AP, O75052]	pKd [21]: 3.72; pKd [22]: below the threshold; pKd [23]: below the threshold; pKd [24]: 4.3; pKd [25]: below the threshold; pKd [26]: below the threshold
below the threshold	3.75	below the threshold	below the threshold	below the threshold	below the threshold	below the threshold	below the threshold	below the threshold	below the threshold	3.85	below the threshold	below the threshold	below the threshold	3.98	below the threshold	below the threshold	below the threshold	below the threshold	below the threshold	LGHTPFVDEL [UQCRC2, P22695]	pKd [21]: 4.12; pKd [22]: 4.73; pKd [23]: below the threshold; pKd [24]: below the threshold; pKd [25]: below the threshold; pKd [26]: below the threshold
below the threshold	3.81	below the threshold	below the threshold	below the threshold	3.69	below the threshold	below the threshold	4.52	3.56	below the threshold	below the threshold	below the threshold	below the threshold	3.94	below the threshold	below the threshold	below the threshold	below the threshold	4.29	YPKQMPLSQV [FZD8, Q9H461]	pKd [21]: 4.09; pKd [22]: below the threshold; pKd [23]: below the threshold; pKd [24]: below the threshold; pKd [25]: below the threshold; pKd [26]: below the threshold
